Results: PMC4551915, “Bacteriophage GIL01 gp7 interacts with host LexA repressor to enhance DNA binding and inhibit RecA-mediated auto-cleavage” (Nucleic Acids Research, 2015)
Where no end group is shown, it is not given here.

T1: His6-gp7 (Bacillus phage GIL01) (UniProt Q7WSG2)
T1 sequence: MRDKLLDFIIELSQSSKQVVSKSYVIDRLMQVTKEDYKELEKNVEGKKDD

T2: His6-LexA (Bacillus thuringiensis LexA repressor) (B. thuringiensis, UniProt A0RH75 1-206)
T2 construct: LexA, SOS transcription repressor of Bacillus thuringiensis; insert defined by nucleotide coordinates 3 624 082 through 3 624 714 in B. cereus strain G9842 (GenBank NC_011772), cloned BamHI-HindIII into pQE-30; also called His-tagged LexA; B. thuringiensis LexA repressor; source: E. coli M15 [pREP4], pQE-30, purified (Ni-NTA); not shown: His6, N-terminal, kept
T2 sequence (looked up): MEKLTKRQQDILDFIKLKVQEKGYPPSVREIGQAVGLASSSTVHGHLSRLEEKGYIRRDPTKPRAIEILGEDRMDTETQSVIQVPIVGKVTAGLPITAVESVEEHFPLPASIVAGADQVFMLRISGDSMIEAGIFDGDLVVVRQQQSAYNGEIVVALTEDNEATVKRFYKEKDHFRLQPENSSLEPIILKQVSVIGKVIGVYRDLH

T3: His6-gp7 (Bacillus phage GIL01, UniProt Q7WSG2 1-50)
T3 chain: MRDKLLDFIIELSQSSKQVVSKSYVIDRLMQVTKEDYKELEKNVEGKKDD


Key:
[1] = molecular target: T1, His6-gp7 (Bacillus phage GIL01); experiment: DNase I footprinting; settings: EMSA/footprint: 80 mM NaCl, 25 mM Tris pH 7.5, 5 mM EDTA, 2 mM DTT, 0.1 mg/ml BSA, 0.05 ug/ul poly(dI-dC), room temp; SPR: 25 mM Tris-HCl pH 7.3, 140 mM NaCl …
[2] = molecular target: T1, His6-gp7 (Bacillus phage GIL01); experiment: EMSA; settings: EMSA/footprint: 80 mM NaCl, 25 mM Tris pH 7.5, 5 mM EDTA, 2 mM DTT, 0.1 mg/ml BSA, 0.05 ug/ul poly(dI-dC), room temp; SPR: 25 mM Tris-HCl pH 7.3, 140 mM NaCl …
[3] = molecular target: T2, His6-LexA (Bacillus thuringiensis LexA …); experiment: SPR; Biacore T100, CM5 chip, His-tagged LexA covalently coupled (EDC/NHS, ~2000 RU), no DNA; His-tagged gp7 (1.6-50 nM, 360 s) or gp1 as analyte; 25°C, 30 μl/min, SPR buffer (25 mM Tris-HCl pH 7.3, 140 mM NaCl, 5 mM EDTA, 2 mM DTT, 0.1 mg/ml BSA, 0.005% P20); apparent KD from plot of response against concentration, assuming one gp7 monomer per LexA monomer; settings: both partners purified
His6-gp7 = molecular target: T3, His6-gp7; experiment: SPR; 300 nM gp7; EMSA/footprint: 80 mM NaCl, 25 mM Tris pH 7.5, 5 mM EDTA, 2 mM DTT, 0.1 mg/ml BSA, 0.05 ug/ul poly(dI-dC), room temp; SPR: 25 mM Tris-HCl pH 7.3, 140 mM NaCl, 5 mM EDTA, 2 mM DTT, 0.1 mg/ml BSA, 0.005% P20, 25 C; settings: protein: recombinant; tags: N-terminal His6 (pQE-30); label: 3'-biotin on S1 anchor; 42 bp; 15 nt 5' overhang annealed to S1

Row | Molecule | binding result (His6-gp7) | also measured
1 | GTGTGACAAGATATTCCAAGGGTGCTATAATAGGAAATGAGTTAAAAAACGAACAAGCGTTTTATAAGTGTTCGGTTTTTGTAACATAACTGTAATATAAAAACATTTGCATTACTGGTAACTTTCGGGTAATATTGGTAGCAGAGAGGGACAAACGGGACAAATCGAGACACGATACATACTCTCTATACAAGTGAAAAGAAGGTGGTGCATAT (double strand) [P1 footprint probe WT (-39 to +176)] | – | binding [1]: no binding
2 | CCAAGGGTGCTATAATAGGAAATGAGTTAAAAAACGAACAAGCGTTTTATAAGTGTTCGGTTTTTGTAACATAACTGTAATATAAAAACATTTGCATTACTGGTAACTTTCGGGTAATATTGGTAGCAGAGAGGGACAAACGGGACAAATCGAGACACGATACATACTCTCTATACAAGTGAAAAGAAGGTGGTGCATAT (double strand) [P1 EMSA probe WT (-25 to +176)] | – | binding [2]: no binding
3 | His6-MRDKLLDFIIELSQSSKQVVSKSYVIDRLMQVTKEDYKELEKNVEGKKDD (natural protein) [His6-gp7 (bacteriophage GIL01 gp7, product of ORF7)] | – | Kd [3]: 17.7 nM
4 | SPR Wt (dinBox1+dinBox1b) (dsDNA) DNA 1: GTTACTACTCGAGCGTTAAAAAACGAACAAGCGTTTTATAAGTGTTCGGTTTTTGTA DNA 2: TACAAAAACCGAACACTTATAAAACGCTTGTTCGTTTTTTAA DNA 3: CGCTCGAGTAGTAAC | no binding | –
5 | SPR B22 (dinBox1b double mutant) (dsDNA) DNA 1: GTTACTACTCGAGCGTTAAAAAACGAACAAGCGTTTTATAAGTATTCAGTTTTTGTA DNA 2: TACAAAAACTGAATACTTATAAAACGCTTGTTCGTTTTTTAA DNA 3: CGCTCGAGTAGTAAC | no binding | –
6 | SPR B12 (dinBox1 double mutant) (dsDNA) DNA 1: GTTACTACTCGAGCGTTAAAAAACTAACAAGCTTTTTATAAGTGTTCGGTTTTTGTA DNA 2: TACAAAAACCGAACACTTATAAAAAGCTTGTTAGTTTTTTAA DNA 3: CGCTCGAGTAGTAAC | no binding | –
7 | SPR B21 (dinBox1b single mutant) (dsDNA) DNA 1: GTTACTACTCGAGCGTTAAAAAACGAACAAGCGTTTTATAAGTGTTCAGTTTTTGTA DNA 2: TACAAAAACTGAACACTTATAAAACGCTTGTTCGTTTTTTAA DNA 3: CGCTCGAGTAGTAAC | no binding | –
8 | SPR B11 (dinBox1 single mutant) (dsDNA) DNA 1: GTTACTACTCGAGCGTTAAAAAACGAACAAGCTTTTTATAAGTGTTCGGTTTTTGTA DNA 2: TACAAAAACCGAACACTTATAAAAAGCTTGTTCGTTTTTTAA DNA 3: CGCTCGAGTAGTAAC | no binding | –
9 | SPR Ns (non-specific; both boxes mutated) (dsDNA) DNA 1: GTTACTACTCGAGCGTTAAAAAACTAACAAGCTTTTTATAAGTATTCAGTTTTTGTA DNA 2: TACAAAAACTGAATACTTATAAAAAGCTTGTTAGTTTTTTAA DNA 3: CGCTCGAGTAGTAAC | no binding | –
